From US10562947B2, “Compositions and methods for preventing or treating diseases, conditions or processes characterized by aberrant fibroblast proliferation and extracellular matrix deposition” (MOERAE MATRIX, INC., priority 2011, dated 2020)

Columns and labels:
Assay in all cases: Kinase Profiling Assay
Type in all cases: biochemical
Settings in all cases: 100 μM peptide
Axl(h) = Axl(h) (Homo sapiens, UniProt P30530)
In short: (§1)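 In duplicate, the activities of 266 available human kinases were determined with MK2 inhibitory peptides present, as a measure of peptide selectivity.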

CDK5/p25(h) = CDK5/p25(h) (Homo sapiens, UniProt Q00535)
In short: as §1

CHK2(I157T)(h) = CHK2(I157T)(h) (Homo sapiens, UniProt O96017, I157T)
In short: as §1

CLK3(h) = CLK3(h) (Homo sapiens, UniProt P49761)
In short: as §1

CaMKIV(h) = molecular target: T1, CaMKIV(h) (Homo sapiens, UniProt Q16566)
T1 sequence (Q16566 1-473): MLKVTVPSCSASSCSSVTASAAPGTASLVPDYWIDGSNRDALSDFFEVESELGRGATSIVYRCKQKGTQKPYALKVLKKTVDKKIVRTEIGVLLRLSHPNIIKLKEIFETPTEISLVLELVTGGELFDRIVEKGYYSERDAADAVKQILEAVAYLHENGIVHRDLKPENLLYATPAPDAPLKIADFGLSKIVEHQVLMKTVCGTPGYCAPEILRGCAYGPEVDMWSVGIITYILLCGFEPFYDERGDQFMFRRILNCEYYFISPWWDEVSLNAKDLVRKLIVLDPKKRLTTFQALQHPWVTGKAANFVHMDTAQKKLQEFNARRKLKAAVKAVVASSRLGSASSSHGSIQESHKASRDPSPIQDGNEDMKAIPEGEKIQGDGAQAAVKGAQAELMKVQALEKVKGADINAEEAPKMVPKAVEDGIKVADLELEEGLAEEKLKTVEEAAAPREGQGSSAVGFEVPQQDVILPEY
In short: as §1

KDR(h) = KDR(h) (Homo sapiens, UniProt P35968)
In short: as §1

MRCKβ(h) = MRCKβ(h) (Homo sapiens, UniProt Q9Y5S2)
In short: as §1

MST1(h) = molecular target: T2, MST1(h) (Homo sapiens, UniProt Q13043)
T2 sequence (Q13043 1-487): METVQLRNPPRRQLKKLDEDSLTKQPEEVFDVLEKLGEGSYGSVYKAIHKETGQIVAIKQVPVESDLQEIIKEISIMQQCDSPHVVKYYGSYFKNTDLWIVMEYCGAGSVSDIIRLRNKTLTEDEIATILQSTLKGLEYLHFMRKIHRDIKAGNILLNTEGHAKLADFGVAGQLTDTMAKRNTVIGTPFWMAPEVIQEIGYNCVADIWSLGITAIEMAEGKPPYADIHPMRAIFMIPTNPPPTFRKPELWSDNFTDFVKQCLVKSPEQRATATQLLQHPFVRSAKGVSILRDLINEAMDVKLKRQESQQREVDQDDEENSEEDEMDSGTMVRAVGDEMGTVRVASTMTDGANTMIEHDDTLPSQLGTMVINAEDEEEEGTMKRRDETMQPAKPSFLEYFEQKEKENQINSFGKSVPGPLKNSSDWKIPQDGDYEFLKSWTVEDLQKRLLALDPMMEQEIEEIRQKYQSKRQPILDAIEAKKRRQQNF
In short: as §1

PKBβ(h) = PKBβ(h) (Homo sapiens, UniProt P31751)
In short: as §1

PKCι(h) = molecular target: T3, PKCι(h) (Homo sapiens, UniProt P41743)
T3 construct: purchased Millipore (IC50 Profiler Express service)
T3 sequence (P41743 1-596): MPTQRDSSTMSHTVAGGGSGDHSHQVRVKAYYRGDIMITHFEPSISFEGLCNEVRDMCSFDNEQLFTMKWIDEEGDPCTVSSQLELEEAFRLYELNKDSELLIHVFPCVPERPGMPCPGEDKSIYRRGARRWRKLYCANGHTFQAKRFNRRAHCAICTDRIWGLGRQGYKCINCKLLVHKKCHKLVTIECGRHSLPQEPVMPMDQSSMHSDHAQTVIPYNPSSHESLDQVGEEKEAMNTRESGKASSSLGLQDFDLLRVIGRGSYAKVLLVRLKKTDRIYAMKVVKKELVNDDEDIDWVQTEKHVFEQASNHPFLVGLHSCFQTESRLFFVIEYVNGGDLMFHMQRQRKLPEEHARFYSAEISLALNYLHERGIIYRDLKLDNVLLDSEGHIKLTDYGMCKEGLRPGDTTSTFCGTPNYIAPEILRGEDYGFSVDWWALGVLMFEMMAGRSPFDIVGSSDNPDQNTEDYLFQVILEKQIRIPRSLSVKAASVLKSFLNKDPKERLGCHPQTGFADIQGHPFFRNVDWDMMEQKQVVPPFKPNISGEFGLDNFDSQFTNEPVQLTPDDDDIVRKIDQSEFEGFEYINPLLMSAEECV
In short: as §1

PTK5(h) = molecular target: T4, PTK5(h) (Homo sapiens, UniProt P42685)
T4 construct: purchased Millipore (IC50 Profiler Express service)
In short: as §1

Pim-3(h) = Pim-3(h) (Homo sapiens, UniProt Q86V86)
In short: as §1

Sequence of MRCKβ(h) (Q9Y5S2 whole entry): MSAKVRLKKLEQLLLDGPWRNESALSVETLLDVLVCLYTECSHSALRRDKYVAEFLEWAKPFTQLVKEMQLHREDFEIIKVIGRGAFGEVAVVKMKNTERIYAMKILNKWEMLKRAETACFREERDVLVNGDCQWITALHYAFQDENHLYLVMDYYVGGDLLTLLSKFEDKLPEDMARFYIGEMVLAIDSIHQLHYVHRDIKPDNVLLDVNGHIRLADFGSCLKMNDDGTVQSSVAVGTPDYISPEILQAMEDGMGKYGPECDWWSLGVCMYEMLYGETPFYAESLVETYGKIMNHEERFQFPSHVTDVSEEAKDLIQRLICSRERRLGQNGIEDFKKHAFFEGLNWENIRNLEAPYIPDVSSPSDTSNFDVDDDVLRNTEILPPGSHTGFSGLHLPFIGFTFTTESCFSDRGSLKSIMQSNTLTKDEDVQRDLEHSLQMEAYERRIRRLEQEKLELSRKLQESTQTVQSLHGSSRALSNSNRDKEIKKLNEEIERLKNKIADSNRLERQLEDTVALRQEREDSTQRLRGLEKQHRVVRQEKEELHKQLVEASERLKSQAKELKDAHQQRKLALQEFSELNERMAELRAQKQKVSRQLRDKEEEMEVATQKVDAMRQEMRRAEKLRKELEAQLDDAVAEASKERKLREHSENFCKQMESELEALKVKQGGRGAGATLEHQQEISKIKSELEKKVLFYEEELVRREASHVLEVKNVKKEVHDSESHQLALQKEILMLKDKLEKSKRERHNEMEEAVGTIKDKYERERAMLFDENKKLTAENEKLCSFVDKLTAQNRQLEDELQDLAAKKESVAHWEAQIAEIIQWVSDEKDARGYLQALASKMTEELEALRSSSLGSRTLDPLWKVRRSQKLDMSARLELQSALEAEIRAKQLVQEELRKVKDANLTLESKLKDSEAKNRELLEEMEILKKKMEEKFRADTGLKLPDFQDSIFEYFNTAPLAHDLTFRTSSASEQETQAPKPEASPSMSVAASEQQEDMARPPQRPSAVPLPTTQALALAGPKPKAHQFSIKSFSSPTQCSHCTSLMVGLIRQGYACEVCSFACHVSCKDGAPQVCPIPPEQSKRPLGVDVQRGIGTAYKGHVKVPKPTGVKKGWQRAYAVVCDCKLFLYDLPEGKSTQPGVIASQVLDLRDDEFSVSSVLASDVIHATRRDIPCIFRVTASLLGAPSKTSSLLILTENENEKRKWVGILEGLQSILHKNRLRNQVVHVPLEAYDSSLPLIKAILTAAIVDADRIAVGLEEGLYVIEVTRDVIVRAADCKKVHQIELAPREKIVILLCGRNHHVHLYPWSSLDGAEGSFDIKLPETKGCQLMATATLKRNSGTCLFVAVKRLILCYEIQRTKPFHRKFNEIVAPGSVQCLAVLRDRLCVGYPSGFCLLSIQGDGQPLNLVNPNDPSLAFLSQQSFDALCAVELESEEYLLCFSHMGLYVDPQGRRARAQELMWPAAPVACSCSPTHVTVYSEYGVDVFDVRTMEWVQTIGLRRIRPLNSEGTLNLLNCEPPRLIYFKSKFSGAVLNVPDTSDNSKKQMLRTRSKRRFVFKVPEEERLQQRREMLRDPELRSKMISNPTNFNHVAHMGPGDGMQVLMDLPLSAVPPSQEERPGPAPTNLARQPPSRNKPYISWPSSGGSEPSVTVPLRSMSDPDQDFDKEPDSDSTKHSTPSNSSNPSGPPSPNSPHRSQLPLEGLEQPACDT
Sequence of CHK2(I157T)(h) (O96017 whole entry I157T): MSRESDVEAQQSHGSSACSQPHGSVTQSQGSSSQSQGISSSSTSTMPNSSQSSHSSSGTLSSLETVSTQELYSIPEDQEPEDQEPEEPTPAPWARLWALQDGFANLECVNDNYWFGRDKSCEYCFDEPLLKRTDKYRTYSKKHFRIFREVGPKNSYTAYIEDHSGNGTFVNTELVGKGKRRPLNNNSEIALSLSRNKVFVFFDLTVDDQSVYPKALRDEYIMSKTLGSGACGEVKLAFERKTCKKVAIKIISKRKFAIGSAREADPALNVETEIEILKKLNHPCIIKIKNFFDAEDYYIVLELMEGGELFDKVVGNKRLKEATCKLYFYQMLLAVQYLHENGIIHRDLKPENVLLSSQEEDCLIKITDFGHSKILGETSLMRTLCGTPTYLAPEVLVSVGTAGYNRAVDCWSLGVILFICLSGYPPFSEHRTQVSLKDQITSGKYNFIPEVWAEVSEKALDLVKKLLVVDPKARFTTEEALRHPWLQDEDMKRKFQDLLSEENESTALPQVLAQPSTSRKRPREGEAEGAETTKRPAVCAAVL
Sequence of CLK3(h) (P49761 whole entry): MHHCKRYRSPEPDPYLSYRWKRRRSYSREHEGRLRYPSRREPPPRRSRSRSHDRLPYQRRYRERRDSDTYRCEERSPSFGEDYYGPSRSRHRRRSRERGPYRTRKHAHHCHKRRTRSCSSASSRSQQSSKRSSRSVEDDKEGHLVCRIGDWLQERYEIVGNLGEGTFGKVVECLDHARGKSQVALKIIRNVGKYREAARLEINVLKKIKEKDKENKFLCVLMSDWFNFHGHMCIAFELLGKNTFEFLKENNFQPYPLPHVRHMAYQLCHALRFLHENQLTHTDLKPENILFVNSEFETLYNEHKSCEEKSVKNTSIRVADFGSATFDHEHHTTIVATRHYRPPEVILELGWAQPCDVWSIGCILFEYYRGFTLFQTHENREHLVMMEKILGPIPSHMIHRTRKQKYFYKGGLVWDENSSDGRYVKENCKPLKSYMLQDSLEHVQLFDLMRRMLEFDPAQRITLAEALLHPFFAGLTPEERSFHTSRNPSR
Sequence of CDK5/p25(h) (Q00535 whole entry): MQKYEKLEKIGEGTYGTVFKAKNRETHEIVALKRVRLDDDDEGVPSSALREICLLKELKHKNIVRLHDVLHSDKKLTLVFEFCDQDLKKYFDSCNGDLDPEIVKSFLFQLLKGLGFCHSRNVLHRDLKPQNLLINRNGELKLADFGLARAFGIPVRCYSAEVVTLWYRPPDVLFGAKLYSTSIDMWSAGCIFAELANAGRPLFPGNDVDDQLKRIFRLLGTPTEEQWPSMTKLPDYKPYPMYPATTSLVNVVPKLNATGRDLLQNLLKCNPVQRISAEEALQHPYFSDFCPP
Sequence of CDK5/p25(h) (Q15078 99-307 partner limits assumed): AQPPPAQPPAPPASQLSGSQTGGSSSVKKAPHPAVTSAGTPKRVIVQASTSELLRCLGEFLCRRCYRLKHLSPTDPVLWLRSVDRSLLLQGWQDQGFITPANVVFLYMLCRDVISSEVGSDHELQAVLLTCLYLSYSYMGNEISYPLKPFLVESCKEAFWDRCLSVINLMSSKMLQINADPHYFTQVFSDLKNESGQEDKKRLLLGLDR
Sequence of KDR(h) (P35968 20-1356): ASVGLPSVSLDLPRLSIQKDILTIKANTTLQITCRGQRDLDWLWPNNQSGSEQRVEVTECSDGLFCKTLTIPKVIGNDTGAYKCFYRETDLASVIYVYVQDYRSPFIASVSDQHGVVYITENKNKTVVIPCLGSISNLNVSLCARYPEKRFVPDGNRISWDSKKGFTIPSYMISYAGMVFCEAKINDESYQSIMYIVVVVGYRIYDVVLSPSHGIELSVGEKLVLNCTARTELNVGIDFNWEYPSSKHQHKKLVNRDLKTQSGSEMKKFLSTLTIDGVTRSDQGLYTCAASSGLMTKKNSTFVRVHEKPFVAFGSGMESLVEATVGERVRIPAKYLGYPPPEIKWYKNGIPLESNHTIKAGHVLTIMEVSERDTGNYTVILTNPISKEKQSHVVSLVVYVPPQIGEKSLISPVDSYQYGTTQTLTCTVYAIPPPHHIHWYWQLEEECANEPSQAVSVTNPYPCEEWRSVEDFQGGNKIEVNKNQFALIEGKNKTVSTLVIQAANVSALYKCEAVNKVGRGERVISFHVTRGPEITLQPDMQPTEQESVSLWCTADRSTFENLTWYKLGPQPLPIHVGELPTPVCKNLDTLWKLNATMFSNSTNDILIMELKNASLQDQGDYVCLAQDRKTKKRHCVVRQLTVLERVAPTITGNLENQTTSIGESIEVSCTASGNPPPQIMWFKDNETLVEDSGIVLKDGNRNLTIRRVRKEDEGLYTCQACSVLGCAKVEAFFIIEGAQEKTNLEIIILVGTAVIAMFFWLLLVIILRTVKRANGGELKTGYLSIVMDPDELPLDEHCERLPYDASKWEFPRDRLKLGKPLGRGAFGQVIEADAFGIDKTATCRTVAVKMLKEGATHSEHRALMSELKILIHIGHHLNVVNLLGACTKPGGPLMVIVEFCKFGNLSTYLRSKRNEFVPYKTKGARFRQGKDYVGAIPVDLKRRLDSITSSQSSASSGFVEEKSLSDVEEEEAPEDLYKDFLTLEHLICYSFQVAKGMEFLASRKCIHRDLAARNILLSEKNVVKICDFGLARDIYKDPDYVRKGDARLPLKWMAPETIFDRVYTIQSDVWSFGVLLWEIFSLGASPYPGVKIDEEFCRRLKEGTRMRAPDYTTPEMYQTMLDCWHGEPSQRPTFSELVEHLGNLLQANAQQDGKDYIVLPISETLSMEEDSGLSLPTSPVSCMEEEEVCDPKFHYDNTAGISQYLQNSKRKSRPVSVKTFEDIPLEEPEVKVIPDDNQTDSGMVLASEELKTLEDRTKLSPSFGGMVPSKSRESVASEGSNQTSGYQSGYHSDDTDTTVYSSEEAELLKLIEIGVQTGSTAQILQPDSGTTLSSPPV

| Sequence | Axl(h) % activity (Axl(h)) [%] | CDK5/p25(h) % activity (CDK5/p25(h)) [%] | CHK2(I157T)(h) % activity (CHK2(I157T)(h)) [%] | CLK3(h) % activity (CLK3(h)) [%] | CaMKIV(h) % activity (CaMKIV(h)) [%] | KDR(h) % activity (KDR(h)) [%] | MRCKβ(h) % activity (MRCKβ(h)) [%] | MST1(h) % activity (MST1(h)) [%] | PKBβ(h) % activity (PKBβ(h)) [%] | PKCι(h) % activity (PKCι(h)) [%] | PTK5(h) % activity (PTK5(h)) [%] | Pim-3(h) % activity (Pim-3(h)) [%] |
| --- | --- | --- | --- | --- | --- | --- | --- | --- | --- | --- | --- | --- |
| KAFAKLAARLYRKALARQLGVAA [MMI-0400] | 41 | 92 | 41 | 84 | 18 | 94 | 71 | 6 | 98 | 46 | 129 | 80 |
| YARAAARQARAKALNRQLGVA (Mammalian) [MMI-0200] | 99 | 97 | 85 | 76 | 71 | 110 | – | 72 | 250 | 97 | 108 | 94 |
| FAKLAARLYRKALARQLGVAA [MMI-0300] | 52 | 89 | 43 | 61 | 17 | 101 | 83 | 14 | 84 | 68 | 132 | 80 |
| HRRIKAWLKKIKALARQLGVAA (Mammalian) [MMI-0500] | 12 | 66 | 3 | 76 | −1 | 15 | −10 | 3 | 21 | 7 | 96 | 37 |
